# T1: APLNR-VC (human, UniProt P35414 1-380)
# T1 construct: whole, on cells; Adenovirus-expressed in U-2 OS cells; not shown: VC155, C-terminal fragment of Venus
# T1 sequence (looked up): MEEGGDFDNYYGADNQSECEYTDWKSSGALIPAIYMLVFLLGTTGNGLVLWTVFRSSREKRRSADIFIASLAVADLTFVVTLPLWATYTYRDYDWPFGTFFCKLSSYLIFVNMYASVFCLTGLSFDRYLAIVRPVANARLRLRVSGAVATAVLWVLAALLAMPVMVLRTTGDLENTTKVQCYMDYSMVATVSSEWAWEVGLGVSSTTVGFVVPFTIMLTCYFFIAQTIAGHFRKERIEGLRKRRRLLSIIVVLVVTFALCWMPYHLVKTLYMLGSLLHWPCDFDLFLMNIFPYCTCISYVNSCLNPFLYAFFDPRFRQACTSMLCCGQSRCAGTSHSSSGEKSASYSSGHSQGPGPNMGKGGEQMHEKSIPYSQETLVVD
# T2: CHRM1-VC (human, UniProt P11229 1-460)
# T2 construct: whole, on cells; Adenovirus-expressed in U-2 OS cells; not shown: VC155, C-terminal fragment of Venus
# T2 sequence (looked up): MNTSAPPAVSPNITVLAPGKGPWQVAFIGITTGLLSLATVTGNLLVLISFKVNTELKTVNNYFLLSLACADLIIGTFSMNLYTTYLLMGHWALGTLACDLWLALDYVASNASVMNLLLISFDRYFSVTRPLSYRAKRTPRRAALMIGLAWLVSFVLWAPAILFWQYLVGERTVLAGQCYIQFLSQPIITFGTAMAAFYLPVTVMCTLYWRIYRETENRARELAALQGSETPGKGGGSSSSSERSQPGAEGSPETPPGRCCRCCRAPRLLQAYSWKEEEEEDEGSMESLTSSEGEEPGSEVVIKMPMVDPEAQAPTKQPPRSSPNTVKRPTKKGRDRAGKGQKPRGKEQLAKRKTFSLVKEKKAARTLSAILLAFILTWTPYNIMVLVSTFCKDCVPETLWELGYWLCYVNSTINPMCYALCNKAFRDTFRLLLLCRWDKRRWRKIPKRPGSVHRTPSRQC
# T3: EDNRB-VC (human, UniProt P24530 27-442)
# T3 construct: whole, on cells; Adenovirus-expressed in U-2 OS cells; not shown: VC155, C-terminal fragment of Venus
# T3 sequence (looked up): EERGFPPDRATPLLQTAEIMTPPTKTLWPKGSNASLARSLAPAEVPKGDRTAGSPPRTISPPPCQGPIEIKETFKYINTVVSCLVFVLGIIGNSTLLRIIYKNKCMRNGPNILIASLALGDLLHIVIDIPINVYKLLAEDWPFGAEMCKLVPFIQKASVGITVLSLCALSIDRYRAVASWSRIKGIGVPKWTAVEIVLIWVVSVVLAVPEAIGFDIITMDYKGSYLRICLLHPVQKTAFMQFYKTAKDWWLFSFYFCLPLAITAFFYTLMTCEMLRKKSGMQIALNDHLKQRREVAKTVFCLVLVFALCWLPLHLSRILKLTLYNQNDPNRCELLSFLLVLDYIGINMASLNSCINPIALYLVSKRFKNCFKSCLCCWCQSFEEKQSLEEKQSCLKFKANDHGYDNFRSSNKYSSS
# T4: TACR3-VC (human, UniProt P29371 1-465)
# T4 construct: whole, on cells; Adenovirus-expressed in U-2 OS cells; not shown: VC155, C-terminal fragment of Venus
# T4 sequence (looked up): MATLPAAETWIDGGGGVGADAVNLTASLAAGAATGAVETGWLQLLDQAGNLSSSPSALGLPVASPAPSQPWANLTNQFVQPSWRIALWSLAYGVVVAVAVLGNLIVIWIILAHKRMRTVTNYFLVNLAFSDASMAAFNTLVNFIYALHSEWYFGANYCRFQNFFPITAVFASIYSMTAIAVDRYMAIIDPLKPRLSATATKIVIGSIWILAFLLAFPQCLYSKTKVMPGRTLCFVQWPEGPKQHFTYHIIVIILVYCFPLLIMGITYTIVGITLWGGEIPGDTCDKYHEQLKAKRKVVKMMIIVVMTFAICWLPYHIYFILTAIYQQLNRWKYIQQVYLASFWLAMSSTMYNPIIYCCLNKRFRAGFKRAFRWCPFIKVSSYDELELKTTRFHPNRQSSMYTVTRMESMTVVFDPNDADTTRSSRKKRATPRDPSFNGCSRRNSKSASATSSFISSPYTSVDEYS
# T5: CHRM1 (human, UniProt P11229 1-460)
# T5 construct: whole, on cells; Untagged: adenovirus-expressed in U-2 OS or MDA-MB-231 cells, or endogenous in patient derived cells; also called Cholinergic Receptor Muscarinic 1
# T5 sequence (looked up): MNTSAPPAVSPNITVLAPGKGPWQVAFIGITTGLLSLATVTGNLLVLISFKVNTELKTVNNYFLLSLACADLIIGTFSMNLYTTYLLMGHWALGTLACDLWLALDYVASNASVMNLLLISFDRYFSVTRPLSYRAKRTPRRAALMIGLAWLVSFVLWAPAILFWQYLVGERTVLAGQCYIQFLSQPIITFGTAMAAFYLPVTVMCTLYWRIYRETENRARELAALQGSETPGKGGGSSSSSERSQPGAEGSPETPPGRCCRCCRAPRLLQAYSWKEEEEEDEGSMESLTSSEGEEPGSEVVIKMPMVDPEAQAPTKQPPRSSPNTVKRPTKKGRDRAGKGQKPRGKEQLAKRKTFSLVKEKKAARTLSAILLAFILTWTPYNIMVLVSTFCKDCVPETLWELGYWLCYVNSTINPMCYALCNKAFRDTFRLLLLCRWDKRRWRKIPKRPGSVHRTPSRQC
# How the values were obtained:
# APLNR-VC = molecular target: T1, APLNR-VC; assay: co-internalization of CXCR4-GFP after GPCRx agonist, U-2 OS cells
# Protocol: (§1) Images were obtained before and 30 min after agonist stimulation, and analyzed using IN Cell Analyzer 2000.
# (§2) U-2 OS cells were seeded at a density of 3000 cells per well in a black 96-well clear-bottom plate in 100 μl of McCoy's 5A medium supplemented with 10% FBS. […] Two days post-transduction, cells were stimulated with GPCRx agonists for 30 min and fixed with 2% formaldehyde.
# ADRB2-VC = molecular target: T6, ADRB2-VC (human, UniProt P07550 1-413); assay: as above
# T6 construct: whole, on cells; Adenovirus-expressed in U-2 OS cells; not shown: VC155, C-terminal fragment of Venus
# Protocol: as §1, §2
# MLNR-VC = molecular target: T7, MLNR-VC (human, UniProt O43193 1-412); assay: as above
# T7 construct: whole, on cells; Adenovirus-expressed in U-2 OS cells; not shown: VC155, C-terminal fragment of Venus
# Protocol: as §1, §2
# CHRM1-VC = molecular target: T2, CHRM1-VC; assay: as above
# Protocol: as §1, §2
# EDNRB-VC = molecular target: T3, EDNRB-VC; assay: as above
# Protocol: as §1, §2
# TACR3-VC = molecular target: T4, TACR3-VC; assay: as above
# Protocol: as §1, §2
# SSTR2-VC = molecular target: T8, SSTR2-VC (human, UniProt P30874 1-369); assay: as above
# T8 construct: whole, on cells; Adenovirus-expressed in U-2 OS cells; not shown: VC155, C-terminal fragment of Venus
# Protocol: as §1, §2
# HRH1-VC = molecular target: T9, HRH1-VC (human, UniProt P35367 1-487); assay: as above
# T9 construct: whole, on cells; Adenovirus-expressed in U-2 OS cells; not shown: VC155, C-terminal fragment of Venus
# Protocol: as §1, §2
# NTSR1-VC = molecular target: T10, NTSR1-VC (human, UniProt P30989 1-418); assay: as above
# T10 construct: whole, on cells; Adenovirus-expressed in U-2 OS cells; not shown: VC155, C-terminal fragment of Venus
# Protocol: as §1, §2
# ADRB2 [1] = molecular target: T11, ADRB2 (human, UniProt P07550 1-413); assay: internalization inhibition assay, CXCR4-GFP U-2 OS cells transduced with GPCRx; CXCL12 and/or GPCRx antagonist
# T11 construct: whole, on cells; Untagged: adenovirus-expressed in U-2 OS or MDA-MB-231 cells, or endogenous in patient derived cells and PDX tissue; also called Adrenoceptor Beta 2; Ad-ADRB2
# Protocol: (§3) Internalization of CXCR4-GFP was observed as GFP granules using IN Cell Analyzer 2500. Loss of GFP expression on the cell surface or appearance of GFP granules inside the cells were considered as CXCR4-GFP co-internalization.
# (§4) CXCR4-GFP expressed U-2 OS cells were seeded at a density of 5000 cells per well in a black 96-well clear-bottom plate in 100 μl of McCoy's 5A medium supplemented with 10% FBS. On the following day, the cells were transduced with adenoviruses encoding GPCRx (30 MOI).
# HRH1 = molecular target: T12, HRH1 (human, UniProt P35367 1-487); assay: as above
# T12 construct: whole, on cells; Untagged: adenovirus-expressed in U-2 OS or MDA-MB-231 cells, or endogenous in MDA-MB-231 cells; also called Histamine Receptor H1
# Protocol: as §3, §4
# CHRM1 [2] = molecular target: T5, CHRM1; assay: as above
# Protocol: as §3, §4
# ADRB2 [3] = molecular target: T11, ADRB2; assay: proximity ligation assay, GBM patient derived cells (endogenous receptors)
# Protocol: (§5) To perform PLA with PDC samples, the patient derived cells were plated and fixed with 4% PFA on sixteen-well tissue culture slides. […] Slides were then washed and incubated (1 h at 37° C.) with secondary anti-rabbit and anti-mouse antibodies conjugated with plus and minus Duolink II PLA probes. Slides were washed again and then incubated with ligation-ligase solution (30 min at 37° C.) followed by incubation with amplification-polymerase solution (2 h at 37° C.).
# as §5, with “PDCs” for “To perform PLA with PDC samples, the patient derived cells”, “seeded in 96-chamber slide at 100000 ea /well in 100 ul” for “plated and fixed with 4% PFA on sixteen-well tissue”, “media.” for “slides.”
# CHRM1 [4] = molecular target: T5, CHRM1; assay: as above
# Protocol: as §5
# as §5, with “PDCs” for “To perform PLA with PDC samples, the patient derived cells”, “seeded in 96-chamber slide at 100000 ea /well in 100 ul” for “plated and fixed with 4% PFA on sixteen-well tissue”, “media.” for “slides.”
# CXCR4-VN = molecular target: T13, CXCR4-VN (human, UniProt P61073 1-352); assay: BiFC, U-2 OS cells; score=(positive cells/total cells)x100
# T13 construct: whole, on cells; Adenovirus-expressed in U-2 OS cells; also called CXCR4 fused with N-terminal fragment of Venus; not shown: VNm10, N-terminal fragment of Venus (VN154 variant with L46F and L64F)
# Protocol: Images of about 200 cells from each well were analyzed with Multi-target analysis software in IN Cell Developer ToolBox (GE Healthcare, Waukesha, Wis.). Cell boundary was marked based on Hoechst signal, and fluorescence intensity per cell was measured. Cells with fluorescence intensities higher than background level were considered as BiFC positive cells. […] Positive cells were determined, and positive cell count ratio (“BiFC score”) was calculated as (positive cells/total cells)×100 (see Table 4 below).
# T8 sequence (P30874 whole entry, the tested form may be a part): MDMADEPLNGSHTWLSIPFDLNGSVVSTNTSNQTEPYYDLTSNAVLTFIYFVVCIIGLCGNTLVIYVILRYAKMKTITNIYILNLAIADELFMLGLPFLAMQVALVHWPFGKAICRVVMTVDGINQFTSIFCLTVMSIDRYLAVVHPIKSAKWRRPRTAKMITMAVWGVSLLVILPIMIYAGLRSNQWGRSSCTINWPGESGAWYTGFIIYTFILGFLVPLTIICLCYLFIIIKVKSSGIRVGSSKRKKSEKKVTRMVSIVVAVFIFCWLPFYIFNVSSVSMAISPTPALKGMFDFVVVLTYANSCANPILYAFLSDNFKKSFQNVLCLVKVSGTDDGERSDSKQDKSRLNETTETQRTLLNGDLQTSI
# T9 sequence (P35367 whole entry, the tested form may be a part): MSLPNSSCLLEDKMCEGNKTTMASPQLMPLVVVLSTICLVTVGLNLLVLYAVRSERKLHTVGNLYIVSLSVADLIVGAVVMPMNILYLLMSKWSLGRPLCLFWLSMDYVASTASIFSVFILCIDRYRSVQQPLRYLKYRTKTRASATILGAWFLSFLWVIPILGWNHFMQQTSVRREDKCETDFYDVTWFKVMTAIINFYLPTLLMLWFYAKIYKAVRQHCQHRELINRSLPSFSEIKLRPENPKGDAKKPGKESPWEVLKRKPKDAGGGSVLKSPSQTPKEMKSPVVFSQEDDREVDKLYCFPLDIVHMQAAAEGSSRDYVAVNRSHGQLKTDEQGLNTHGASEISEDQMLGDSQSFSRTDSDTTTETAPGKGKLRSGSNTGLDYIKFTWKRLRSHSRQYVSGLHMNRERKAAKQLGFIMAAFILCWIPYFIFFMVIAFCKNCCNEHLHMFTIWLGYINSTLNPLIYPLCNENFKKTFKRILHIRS
# T12 sequence (P35367 whole entry): as the sequence (P35367 whole entry, the tested form may be a part) above
# T10 sequence (P30989 whole entry, the tested form may be a part): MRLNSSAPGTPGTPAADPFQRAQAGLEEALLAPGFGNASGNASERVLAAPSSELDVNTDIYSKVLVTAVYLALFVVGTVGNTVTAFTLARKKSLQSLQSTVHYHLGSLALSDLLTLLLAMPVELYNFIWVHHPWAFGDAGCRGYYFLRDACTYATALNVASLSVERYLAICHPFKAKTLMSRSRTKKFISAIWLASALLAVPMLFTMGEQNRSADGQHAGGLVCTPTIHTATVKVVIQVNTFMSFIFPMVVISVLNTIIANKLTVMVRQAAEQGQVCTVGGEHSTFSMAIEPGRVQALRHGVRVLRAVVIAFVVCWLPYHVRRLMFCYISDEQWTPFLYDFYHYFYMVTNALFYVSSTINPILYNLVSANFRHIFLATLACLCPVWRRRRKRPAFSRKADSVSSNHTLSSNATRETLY
# T7 sequence (O43193 whole entry, the tested form may be a part): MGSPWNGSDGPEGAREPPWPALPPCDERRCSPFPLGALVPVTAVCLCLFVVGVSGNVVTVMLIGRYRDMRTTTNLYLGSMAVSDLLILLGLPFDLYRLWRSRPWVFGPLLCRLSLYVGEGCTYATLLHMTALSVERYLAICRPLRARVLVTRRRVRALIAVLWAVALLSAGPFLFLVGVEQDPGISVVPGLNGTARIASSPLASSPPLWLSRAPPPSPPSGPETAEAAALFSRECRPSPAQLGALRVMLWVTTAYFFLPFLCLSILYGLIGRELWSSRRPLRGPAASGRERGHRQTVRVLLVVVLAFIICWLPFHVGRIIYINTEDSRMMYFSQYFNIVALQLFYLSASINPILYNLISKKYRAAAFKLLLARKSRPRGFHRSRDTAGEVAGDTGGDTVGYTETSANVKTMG
binder,measurement,setting,value
"CXCR4-EGFP (receptor, human, UniProt P61073 1-352, looked up, whole, on cells; also called CXCR4-GFP; CXCR-EGFP; not shown: EGFP/GFP from the pAdHTS-GFPC vector) MEGISIYTSDNYTEEMGSGDYDSMKEPCFREENANFNKIFLPTIYSIIFLTGIVGNGLVILVMGYQKKLRSMTDKYRLHLSVADLLFVITLPFWAVDAVANWYFGNFLCKAVHVIYTVNLYSSVLILAFISLDRYLAIVHATNSQRPRKLLAEKVVYVGVWIPALLLTIPDFIFANVSEADDRYICDRFYPNDLWVVVFQFQHIMVGLILPGIVILSCYCIIISKLSHSKGHQKRKALKTTVILILAFFACWLPYYIGISIDSFILLEIIKQGCEFENTVHKWISITEALAFFHCCLNPILYAFLGAKFKTSAQHALTSVSRGSSLKILSKGKRGGHSSVSTESESSSFHSS",binding result,APLNR-VC,binds
same,binding result,ADRB2-VC,binds
same,binding result,MLNR-VC,binds
same,binding result,CHRM1-VC,binds
same,binding result,EDNRB-VC,binds
same,binding result,TACR3-VC,binds
same,binding result,SSTR2-VC,binds
same,binding result,HRH1-VC,binds
same,binding result,NTSR1-VC,binds
same,binding result,ADRB2 [1],binds
same,binding result,HRH1,binds
same,binding result,CHRM1 [2],binds
"CXCR4 (receptor, human, UniProt P61073 1-352, looked up, whole, on cells; also called C-X-C Motif Chemokine Receptor 4; CXC receptor 4) MEGISIYTSDNYTEEMGSGDYDSMKEPCFREENANFNKIFLPTIYSIIFLTGIVGNGLVILVMGYQKKLRSMTDKYRLHLSVADLLFVITLPFWAVDAVANWYFGNFLCKAVHVIYTVNLYSSVLILAFISLDRYLAIVHATNSQRPRKLLAEKVVYVGVWIPALLLTIPDFIFANVSEADDRYICDRFYPNDLWVVVFQFQHIMVGLILPGIVILSCYCIIISKLSHSKGHQKRKALKTTVILILAFFACWLPYYIGISIDSFILLEIIKQGCEFENTVHKWISITEALAFFHCCLNPILYAFLGAKFKTSAQHALTSVSRGSSLKILSKGKRGGHSSVSTESESSSFHSS",binding result,ADRB2 [3],binds
same,binding result,CHRM1 [4],binds
"ADRA1A-VC (receptor, human, UniProt P35348 1-466, looked up, whole, on cells; Adenovirus-expressed in U-2 OS cells; not shown: VC155, C-terminal fragment of Venus) MVFLSGNASDSSNCTQPPAPVNISKAILLGVILGGLILFGVLGNILVILSVACHRHLHSVTHYYIVNLAVADLLLTSTVLPFSAIFEVLGYWAFGRVFCNIWAAVDVLCCTASIMGLCIISIDRYIGVSYPLRYPTIVTQRRGLMALLCVWALSLVISIGPLFGWRQPAPEDETICQINEEPGYVLFSALGSFYLPLAIILVMYCRVYVVAKRESRGLKSGLKTDKSDSEQVTLRIHRKNAPAGGSGMASAKTKTHFSVRLLKFSREKKAAKTLGIVVGCFVLCWLPFFLVMPIGSFFPDFKPSETVFKIVFWLGYLNSCINPIIYPCSSQEFKKAFQNVLRIQCLCRKQSSKHALGYTLHPPSQAVEGQHKDMVRIPVGSRETFYRISKTDGVCEWKFFSSMPRGSARITVSKDQSSCTTARVRSKSFLQVCCCVGPSTPSLDKNHQVPTIKVHTISLSENGEEV",BiFC score,CXCR4-VN,7.85

# From patent publication US20190183976A1 (GPCR THERAPEUTICS, published 2019)
